Experimental data as given in PMC6947424, “New Targeted Gold Nanorods for the Treatment of Glioblastoma by Photodynamic Therapy” (Journal of Clinical Medicine, 2019).
Where “and” joins values, the source holds several entries; their conditions need not be identical. Equal entries are not always repeated. Residues, ends and D or L forms follow the SMILES beside them. *: point of attachment. Pyropheophorbide(a) = C=Cc1c(C)c2cc3nc(c4c5[nH]c(cc6nc(cc1[nH]2)C(C)=C6CC)c(C)c5C(=O)C4)[C@@H](CCC(=O)*)[C@@H]3C; Hexanoyl(6-maleimido) = O=C1C=CC(=O)N1CCCCCC(=O)*

What was measured:
[1] = system: U87 glioblastoma cells; assay: MTT cytotoxicity in the dark, U87 cells; format: cell-based; conditions: 24 h in the dark, n = 3
Procedure: For in vitro experiments, U87 glioblastoma cells (ATCC® HTB-14™) were cultivated in Dulbecco’s modified eagle’s medium (DMEM) supplemented with sodium pyruvate 1.5 mM, MEM AA, MEM NE AA, MEM vitamins, L-Ser 14 μg·mL^−1, L-asp 25 μg·mL^−1, L-Glu 2.5 mM, 100 U·mL^−1 penicillin, 100 μg·mL^−1 streptomycin, and 20% FCS. They were cultured under standard cell culture conditions while incubated in 5% CO2/80% humidified air at 37 °C.
Cell survival of U87 after incubation with the hybrid AuNRs, the PS-peptide conjugate or the free PS in the dark (cytotoxicity) or after light exposure (phototoxicity) was investigated using an MTT assay as previously described. […] However, the phototoxicity induced by those molecules was assessed by exposing the cells to light at a fluence of 10 J·cm^−2 (fluence rate 4.54 mW·cm^−2, duration: 36 min 42 s) using a 652 nm diode laser system (Ceralas, Biolytec, Jena, Germany). […] The cell survival was measured by MTT assay where the cells were incubated for 3 h at 37 °C with 0.4 mg·mL^−1. […] The absorption of formazan was measured at 540 nm with a background subtraction at 630 nm using a Multiskan Ascent plate reader (Thermo Scientific, Vantaa, Finland). […]
All in vitro experiments were realized in triplicate and expressed as a percentage of variation from control cells. […]

[2] = Fluorescence emission (quantum yield and lifetime); format: physicochemical; conditions: ethanol; for τf (fluorescence lifetime): TCSPC, single exponential fit; for Φf (fluorescence quantum yield): excitation 412 nm, TPP in toluene as standard, 25 °C
Procedure: (§1) The setup and the protocol to evaluate the photophysical characterizations including the absorption, fluorescence, and singlet oxygen emission spectra in addition to the fluorescence and singlet oxygen lifetimes have been previously described by our team. The absorption spectra were recorded on a UV-3600 UV–vis double beam spectrophotometer (Shimadzu, Marne La Vallée, France) in the wavelength range of 200-800 nm. The measurements were performed on the molecules dispersed in ethanol in quartz cuvettes with an optical path of 10 mm. The fluorescence spectra were recorded on a Horiba Jobin Yvon Fluorolog-3 (FL3-222) spectrofluorimeter equipped with a 450W xenon lamp, a thermostated cell compartment (25 °C), a R928 (Hamamatsu, Massy, France) UV–vis photomultiplier and a liquid nitrogen cooled InGaAs infrared detector (DSS-16A020L Electro-Optical System Inc., Phoenixville, PA, USA). The excitation spectrometer used is a SPEX double grating monochromator (1200 grooves per mm blazed at 330 nm). The fluorescence was measured using the UV–vis detector through a SPEX double grating monochromator (600 grooves per mm blazed at 500 nm). The singlet oxygen production was measured using the IR detector through a SPEX double grating monochromator (600 grooves per mm blazed at 1 μm).
(§2) Fluorescence quantum yields (Φf) were determined using a tetraphenyl porphyrin (TPP) solution as the fluorescence standard (Φf = 0.11 in toluene, taking into account solvent refractive index and absorption efficiencies. For the direct determination of ^1O2 quantum yield (ΦΔ), excitation was performed with a Xe-arc, the light was separated in a SPEX 1680, 0.22 µm double monochromator. Detection at 1270 nm was carried out through a PTI S/N 1565 monochromator and the emission was monitored by a liquid nitrogen cooled Ge-detector (EO-817L, North Coast Scientific Co, OH, USA). Rose Bengal (RB) was chosen as a reference solution because of its high ^1O2 quantum yield in EtOH (ΦΔ = 0.68). The absorbance value at the excitation wavelengths (412 nm) of both the reference and the sample solutions were set to approximately 0.2 by dilution. The samples were all prepared in ethanol.
The quantum yield of fluorescence is determined by the equation (1):(1) Φf=Φf0×If/If0×[…]×(n/n0)^2 where Φf and Φf0, If and If0, DO and DO0, n and n0 are the quantum yields, intensities, optical densities and refraction indices of the sample and reference, respectively.
(§3) Fluorescence lifetimes were measured by Time-Correlated Single Photon Counting (TCSPC) using for excitation a pulsed laser diode LDH-P-C-405 coupled with a PDL 800-D driver (both from PicoQuant GmbH, Berlin, Germany) emitting at 408 nm (FWHM < 70 ps, 1 MHz) and an SPCM-AQR-15 avalanche photodiode (EG & G, Vaudreuil, Canada) coupled with a 650 nm (±10 nm) interference long-wave pass filter as the detection system. The acquisition system was a PicoHarp 300 module with a PHR-800 four-channel router (both from PicoQuant GmbH, Berlin, Germany). Fluorescence decays were recorded using the single photon counting method (four optical faced quartz cells for pure products in ethanol). Data were collected, and up to 1000 counts were accumulated in the maximum channel and analyzed using Fluofit TCSPC software (PicoQuant GmbH, Berlin, Germany) based on iterative reconvolution using a Levensberg-Marquandt algorithm. Singlet oxygen lifetime measurements have been performed on a TEMPRO-01 spectrophotometer (Horiba Jobin Yvon, Palaiseau, France). The apparatus was composed of a pulsed diode excitation source SpectraLED-415 emitting at 415 nm, a cuvette compartment, a Seya–Namioka type emission monochromator (600–2000 nm), and an H10330-45 near-infrared photomultiplier tube with a thermoelectric cooler (Hamamatsu, Massy, France) as the detection system. The system was monitored by a single photon counting controller FluoroHub-B and the software DataStation and DAS6 (Horiba Jobin Yvon, Palaiseau, France). […]

[3] = Singlet oxygen production (quantum yield and lifetime); format: physicochemical; conditions: ethanol; for ΦΔ (singlet oxygen quantum yield): excitation 412 nm, detection 1270 nm, Rose Bengal as reference
Procedure: as §1, §2
The quantum yield of singlet oxygen production is determined by the equation (2):(2) ΦΔ=ΦΔ0×I/I0×[…] where ΦΔ and ΦΔ0, I and I0, DO and DO0 are the luminescence quantum yields of singlet oxygen, the luminescence intensities and the optical densities of the sample and reference, respectively.
as §3

| SMILES | dark cytotoxicity ([1]; even at PS concentration of 30 µM) | τf (fluorescence lifetime) [2] [ns] | Φf (fluorescence quantum yield) [2] | τΔ (singlet oxygen lifetime) [3] [μs] | ΦΔ (singlet oxygen quantum yield) [3] | dark cytotoxicity (metabolic activity of U87 cells) ([1]; 10 µM PS) |
| --- | --- | --- | --- | --- | --- | --- |
| C=Cc1c(C)c2cc3nc(c4c5[nH]c(cc6nc(cc1[nH]2)C(C)=C6CC)c(C)c5C(=O)C4)[C@@H](CCC(=O)NCCCC[C@H](NC(=O)CCCCCN1C(=O)C=CC1=O)C(=O)N[C@@H](CC(=O)O)C(=O)N[C@@H](CCCCN)C(=O)N1CCC[C@H]1C(=O)N1CCC[C@H]1C(=O)N[C@@H](CCCNC(=N)N)C(=O)O)[C@@H]3C [MI-K(Pyro)DKPPR-OH] ({Hexanoyl(6-maleimido)}-K(Pyropheophorbide(a))DKPPR-OH) | no cytotoxic effect | 6.5 | 0.29 | 13 | 0.39 |  |
| C=Cc1c(C)c2cc3nc(c4c5[nH]c(cc6nc(cc1[nH]2)C(C)=C6CC)c(C)c5C(=O)C4)[C@@H](CCC(=O)O)[C@@H]3C [Pyro, pyropheophorbide-a, reference compound] |  | 6.8 | 0.38 | 14 | 0.5 and 0.51 | decrease the metabolic activity of U87 cells |
